Measured values from PMC5042576.

Biological target: Actin filaments decorated with Tpm3.1 (chicken | human) (UniProt P68139)

Chain of Mouse melanophilin with N-terminal SNAP tag and C-terminal Flag tag (Q91V27 whole entry): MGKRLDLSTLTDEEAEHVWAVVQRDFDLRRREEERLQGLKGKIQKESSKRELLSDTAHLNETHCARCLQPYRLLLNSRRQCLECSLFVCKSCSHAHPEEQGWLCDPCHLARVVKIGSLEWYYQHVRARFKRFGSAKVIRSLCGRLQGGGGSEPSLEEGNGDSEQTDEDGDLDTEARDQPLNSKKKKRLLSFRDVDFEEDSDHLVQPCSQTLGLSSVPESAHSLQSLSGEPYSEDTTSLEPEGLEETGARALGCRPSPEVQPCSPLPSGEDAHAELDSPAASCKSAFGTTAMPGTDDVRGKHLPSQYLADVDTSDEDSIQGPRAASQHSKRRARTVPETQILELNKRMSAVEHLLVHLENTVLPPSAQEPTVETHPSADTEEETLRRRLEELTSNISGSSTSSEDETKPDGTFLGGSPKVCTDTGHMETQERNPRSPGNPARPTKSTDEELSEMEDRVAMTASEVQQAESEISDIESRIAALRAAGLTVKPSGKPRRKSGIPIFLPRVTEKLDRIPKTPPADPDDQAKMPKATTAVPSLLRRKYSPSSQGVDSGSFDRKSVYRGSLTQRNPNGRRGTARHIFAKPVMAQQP

- fold affinity against actin–Tpm1.8 and actin–Tpm4.2: 2 fold
Substance: Mouse melanophilin with N-terminal SNAP tag and C-terminal Flag tag (from UniProt Q91V27 1-590) (natural protein)
